The values that follow come from US20230374116A1 (ROSALIND FRANKLIN INSTITUTE, published 2023).

As a reminder, the Kd is a measure of binding affinity in units of concentration. A higher Kd goes with a looser complex. Broadly, the koff is a measure of how fast the partners let go of each other. As usually defined, the kon is the second-order rate constant of association.

The target of assay [1] is T1, SARS-CoV-2 receptor-binding domain fused to hIgG1 Fc (SARS-CoV-2 (Wuhan/Victoria), UniProt P0DTC2 330-532). The assay is described as follows: SPR, VHH analyte over immobilised RBD. For orientation: In SPR one partner is held on a chip, and binding of the other changes the refractive index at the surface.
In assay [2] the target is T2, SARS-CoV-2 receptor-binding domain (amino acids 330-532), prototypical Wuhan/Victoria (SARS-CoV-2 (Wuhan/Victoria), UniProt P0DTC2 330-532). In words: SPR, VHH analyte, biotinylated RBD ligand.
For assay [3], the target named is T2, SARS-CoV-2 receptor-binding domain …. The assay is described as follows: SPR, VHH analyte over immobilised RBD.
Assay [4] deals with Spike protein on live SARS-CoV-2 Victoria strain (SARS-CoV-2 (Victoria), UniProt P0DTC2 14-1273). In words: cell-based or functional assay.
Assay [5] deals with T1, SARS-CoV-2 receptor-binding domain …. The assay is described as follows: SPR, trimer analyte, RBD ligand.
In assay [6] the target is T2, SARS-CoV-2 receptor-binding domain …. The assay is described as follows: SPR.
For assay [7] the target is unchanged. In words: SPR, RBD binding kinetics.

B1: B12 (VHH)
VHH: QVQLVESGGGFVQPGGSLRLSCAVSGGTFSTYGMGWFRQAPGKEREIVAAIRRSGSTYYADSVRGRFTISRDNAKNSVLLQMNSLKPEDTAVYYCAARRAGREYEYWGQGTQVTVSS
notes: also called VHH B12
In assay [1], B1 showed a Kd of 77 pM, a T1/2 of 0.7 h, a koff of 0.00027 s⁻¹ and a kon of 3.6e+06 M⁻¹ s⁻¹.

B2: F2 (VHH)
VHH: QVQLVESGGGLVQAGGSLRLACIASGRTFHSYVMAWFRQAPGKEREFVAAISWSSTPTYYGESVKGRFTISRDNAKNTVYLQMNRLKPEDTAVYFCAADRGESYYYTRPTEYEFWGQGTQVTVSS
notes: also called VHH F2
As to B2, the equilibrium dissociation constant (Kd) in assay [2] and in assay [3] was 40 pM in each case.

B3: C1 (VHH)
VHH: QVQLVESGGGLVQPGGSLRLSCAASGFTNDFYSIAWFRQAPGKEREGVSWLSVSDNTPTYVDSVKDRFTISRHNANNTVYLQMNMLKPEDTAIYYCAAGRFAGRDTWPSSYDYWGQGTQVTVSS
As to B3, the Kd in assay [2] and in assay [3] was 615 pM throughout.

B4: H3 (VHH)
VHH: QVQLVESGGGLVKTGGSLRLSCAASGRTFSTYSMGWFRQAPGKEREFVAGMRWTGSSTFYSDSVKGRFTVSRNNAKDTVYLHMNSLKPEDTAVYYCAITTIVRAYYTEYTEADFGSWGQGTQVTVSS
In assay [2], B4 returned a Kd of 25 pM and a T1/2 of 0.583 h. Further, in assay [3], the Kd is 25 pM and the T1/2 was found to be 0.583 h.

B5: H3 trimer (VHH)
chain: QVQLVESGGGLVKTGGSLRLSCAASGRTFSTYSMGWFRQAPGKEREFVAGMRWTGSSTFYSDSVKGRFTVSRNNAKDTVYLHMNSLKPEDTAVYYCAITTIVRAYYTEYTEADFGSWGQGTQVTVSSGAVLAPQVQLVESGGGLVKTGGSLRLSCAASGRTFSTYSMGWFRQAPGKEREFVAGMRWTGSSTFYSDSVKGRFTVSRNNAKDTVYLHMNSLKPEDTAVYYCAITTIVRAYYTEYTEADFGSWGQGTQVTVSSGSGSGSQVQLVESGGGLVKTGGSLRLSCAASGRTFSTYSMGWFRQAPGKEREFVAGMRWTGSSTFYSDSVKGRFTVSRNNAKDTVYLHMNSLKPEDTAVYYCAITTIVRAYYTEYTEADFGSWGQGTQVTVSS
B5: in assay [4], the “ND 50 MN assay, live virus” value is 0.4 nM. Besides, in assay [5], the Kd worked out at 0.3 pM, the T1/2 is 5.82 h, the koff is 3.3e-05 s⁻¹ and the kon stood at 1.2e+08 M⁻¹ s⁻¹.

B6: A8 trimer (bispecific antibody)
chain: QVQLVESGGGLVQAGGSLRLSCAASGGTFSTAAMGWFRQAPGEERECVASIGWRGVRTWYADSVKGRFTISRDNPQNTVYLQMNNLKSGDTAVYYCAASVGNYGLPWAHFEYDFWGQGIQVTVSSGSGSGSQVQLVESGGGLVQAGGSLRLSCAASGGTFSTAAMGWFRQAPGEERECVASIGWRGVRTWYADSVKGRFTISRDNPQNTVYLQMNNLKSGDTAVYYCAASVGNYGLPWAHFEYDFWGQGIQVTVSSGSGSGSQVQLVESGGGLVQAGGSLRLSCAASGGTFSTAAMGWFRQAPGEERECVASIGWRGVRTWYADSVKGRFTISRDNPQNTVYLQMNNLKSGDTAVYYCAASVGNYGLPWAHFEYDFWGQGTQVTVSSKHHHHHH
On to B6, for which the “ND 50 MN assay, live virus” value in assay [4] worked out at 0.09 nM. In assay [5], binding was characterised by a dissociation constant (Kd) of 5 pM and the T1/2 came out at 4.63 h.

B7: C1-SUMO-H11-H4-Fc (Fc fusion)
chain: QVQLVESGGGLVQPGGSLRLSCAASGFTNDFYSIAWFRQAPGKEREGVSWLSVSDNTPTYVDSVKDRFTISRHNANNTVYLQMNMLKPEDTAIYYCAAGRFAGRDTWPSSYDYWGQGTQVTVSSGSGSGSDSEVNQEAKPEVKPEVKPETHINLKVSDGSSEIFFKIKKTTPLRRLMEAFAKRQGKEMDSLRFLYDGIRIQADQTPEDLDMEDNDIIEAHREQIGSGSGSQVQLVESGGGLMQAGGSLRLSCAVSGRTFSTAAMGWFRQAPGKEREFVAAIRWSGGSAYYADSVKGRFTISRDKAKNTVYLQMNSLKYEDTAVYYCAQTHYVSYLLSDYATWPYDYWGQGTQVTVSS
notes: also called C1-GSGSGS-SUMO-GSGSGS-H11-H4
For B7, the “fold increase in affinity on combining the VHHs” value (from here on “fold increase in affinity”) in assay [6] is around 40 fold. In addition, in assay [7], the Kd was 13 pM, the T1/2 worked out at 2.8 h, the koff amounted to 6.8e-05 s⁻¹ and the kon turned out to be 5.1e+06 M⁻¹ s⁻¹.

B8: C1-SUMO-C5-Fc (Fc fusion)
chain: QVQLVESGGGLVQPGGSLRLSCAASGFTNDFYSIAWFRQAPGKEREGVSWLSVSDNTPTYVDSVKDRFTISRHNANNTVYLQMNMLKPEDTAIYYCAAGRFAGRDTWPSSYDYWGQGTQVTVSSGSGSGSDSEVNQEAKPEVKPEVKPETHINLKVSDGSSEIFFKIKKTTPLRRLMEAFAKRQGKEMDSLRFLYDGIRIQADQTPEDLDMEDNDIIEAHREQIGSGSGSQVQLVESGGGSVQAGGSLTLSCVASGVTLGRHAIGWFRQAPGKERERVSCIRTFDGITSYVESTKGRFTISSNNAMNTVYLQMNSLKPEDTAVYFCALGVTAACSDNPYFWGQGTQVTVSS
notes: also called C1-GSGSGS-SUMO-GSGSGS-C5
For the molecule B8, the “fold increase in affinity” value in assay [6] was around 240 fold. In assay [7], this molecule showed a Kd of 1.63 pM, a T1/2 of 246 h, a koff of 4.9e-05 s⁻¹ and a kon of 3e+07 M⁻¹ s⁻¹.

B9: C5 trimer (VHH)
chain: QVQLVESGGGSVQAGGSLTLSCVASGVTLGRHAIGWFRQAPGKERERVSCIRTFDGITSYVESTKGRFTISSNNAMNTVYLQMNSLKPEDTAVYFCALGVTAACSDNPYFWGQGTQVTVSSGSGSGSQVQLVESGGGSVQAGGSLTLSCVASGVTLGRHAIGWFRQAPGKERERVSCIRTFDGITSYVESTKGRFTISSNNAMNTVYLQMNSLKPEDTAVYFCALGVTAACSDNPYFWGQGTQVTVSSGSGSGSQVQLVESGGGSVQAGGSLTLSCVASGVTLGRHAIGWFRQAPGKERERVSCIRTFDGITSYVESTKGRFTISSNNAMNTVYLQMNSLKPEDTAVYFCALGVTAACSDNPYFWGQGTQVTVSS
notes: also called trimeric C5 nanobody; C5-6GS-C5-6GS-C5
Consider B9, for which, in assay [4], the “ND 50 MN assay, live virus” value stood at 0.02 nM. Further, in assay [5], the Kd turned out to be 18 pM and the T1/2 turned out to be 1.53 h.

B10: C1 trimer (VHH)
chain: QVQLVESGGGLVQPGGSLRLSCAASGFTNDFYSIAWFRQAPGKEREGVSWLSVSDNTPTYVDSVKDRFTISRHNANNTVYLQMNMLKPEDTAIYYCAAGRFAGRDTWPSSYDYWGQGTQVTVSSGSGSGSQVQLVESGGGLVQPGGSLRLSCAASGFTNDFYSIAWFRQAPGKEREGVSWLSVSDNTPTYVDSVKDRFTISRHNANNTVYLQMNMLKPEDTAIYYCAAGRFAGRDTWPSSYDYWGQGTQVTVSSGSGSGSQVQLVESGGGLVQPGGSLRLSCAASGFTNDFYSIAWFRQAPGKEREGVSWLSVSDNTPTYVDSVKDRFTISRHNANNTVYLQMNMLKPEDTAIYYCAAGRFAGRDTWPSSYDYWGQGTQVTVSS
On to B10, for which the “ND 50 MN assay, live virus” value in assay [4] came out at 4.9 nM. In assay [5], the Kd worked out at 53 pM, the T1/2 stood at 4.03 h, the koff stood at 4.8e-05 s⁻¹ and the kon turned out to be 900000 M⁻¹ s⁻¹.

B11: C1-SUMO-H3-Fc (Fc fusion)
chain: QVQLVESGGGLVQPGGSLRLSCAASGFTNDFYSIAWFRQAPGKEREGVSWLSVSDNTPTYVDSVKDRFTISRHNANNTVYLQMNMLKPEDTAIYYCAAGRFAGRDTWPSSYDYWGQGTQVTVSSGSGSGSDSEVNQEAKPEVKPEVKPETHINLKVSDGSSEIFFKIKKTTPLRRLMEAFAKRQGKEMDSLRFLYDGIRIQADQTPEDLDMEDNDIIEAHREQIGSGSGSQVQLVESGGGLVKTGGSLRLSCAASGRTFSTYSMGWFRQAPGKEREFVAGMRWTGSSTFYSDSVKGRFTVSRNNAKDTVYLHMNSLKPEDTAVYYCAITTIVRAYYTEYTEADFGSWGQGTQVTVS
notes: also called C1-GSGSGS-SUMO-GSGSGS-H3
Consider B11, for which the “fold increase in affinity” value in assay [6] is around 40 fold. Besides, in assay [7], the Kd was 11 pM, the T1/2 was 4.1 h, the koff turned out to be 4.7e-05 s⁻¹ and the kon is 4.3e+06 M⁻¹ s⁻¹.
